The results in this text go back to patent US10450368 (DUKE UNIVERSITY, dated 2019).

One experiment deals with T1, CH505.TF mutant gp120 M6 (HIV-1).
T1 construct: domain: gp120
In words: ELISA. On the technique in general: An ELISA detects its analyte on a solid surface through an enzyme-linked reagent.

Another experiment deals with CH505.M10D8gp120. In words: ELISA.
Another experiment has as its target CH505.M5D8gp120293F. In words: ELISA.
The next experiment deals with CH505.M19D8gp120. In words: ELISA.
Another experiment addresses CH505.M9D8gp120/293F. In words: ELISA.
In a further experiment the target is T2, CH505.TF mutant gp120 M8 (HIV-1).
T2 construct: domain: gp120
In words: ELISA.

Another experiment deals with CH505.M21D8gp120/293F. In words: ELISA.
Experiment [1] has as its target T3, CH505.TF mutant gp120 M20 (HIV-1).
T3 construct: domain: gp120
In words: ELISA.

For another experiment, the target named is CH505.M11D8gp120/293F. In words: ELISA.
The target in another experiment is CH505.M7D8gp120/293F. In words: ELISA.
A further experiment addresses T4, CH505.w30.12D8gp120.
T4 construct: also called CH505w30.12 gp120
In words: ELISA.

The next experiment concerns the target T5, CH505w030.20D8gp120/293F.
T5 construct: also called CH505w30.20 gp120
In words: ELISA.

The next experiment deals with T6, CH505w020.14D8gp120.
T6 construct: also called CH505w20.14 gp120
In words: ELISA.

Another experiment concerns the target CH0505_CON D7gp120/293i. In words: ELISA.
In the next experiment the target is CH505w136.B18D8gp120. In words: ELISA.
In experiment [2] the target is T7, Jo-1 (UniProt P12081 1-509).
T7 sequence: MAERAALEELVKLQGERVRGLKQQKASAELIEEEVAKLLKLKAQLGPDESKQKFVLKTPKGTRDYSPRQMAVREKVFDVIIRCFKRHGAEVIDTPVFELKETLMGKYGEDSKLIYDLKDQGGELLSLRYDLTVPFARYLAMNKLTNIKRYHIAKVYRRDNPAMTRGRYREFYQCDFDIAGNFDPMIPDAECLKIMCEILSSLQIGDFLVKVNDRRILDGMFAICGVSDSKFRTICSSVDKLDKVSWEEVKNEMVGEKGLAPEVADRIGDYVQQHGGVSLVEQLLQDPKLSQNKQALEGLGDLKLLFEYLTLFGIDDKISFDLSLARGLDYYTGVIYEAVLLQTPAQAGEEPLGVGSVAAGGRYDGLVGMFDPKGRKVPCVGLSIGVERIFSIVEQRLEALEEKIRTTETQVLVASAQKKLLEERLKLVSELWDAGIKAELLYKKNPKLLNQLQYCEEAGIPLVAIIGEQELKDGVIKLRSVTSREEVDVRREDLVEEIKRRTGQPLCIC
In words: ELISA, LogAUC grade.

Another experiment deals with T8, SSB (UniProt P05455 1-408).
T8 sequence: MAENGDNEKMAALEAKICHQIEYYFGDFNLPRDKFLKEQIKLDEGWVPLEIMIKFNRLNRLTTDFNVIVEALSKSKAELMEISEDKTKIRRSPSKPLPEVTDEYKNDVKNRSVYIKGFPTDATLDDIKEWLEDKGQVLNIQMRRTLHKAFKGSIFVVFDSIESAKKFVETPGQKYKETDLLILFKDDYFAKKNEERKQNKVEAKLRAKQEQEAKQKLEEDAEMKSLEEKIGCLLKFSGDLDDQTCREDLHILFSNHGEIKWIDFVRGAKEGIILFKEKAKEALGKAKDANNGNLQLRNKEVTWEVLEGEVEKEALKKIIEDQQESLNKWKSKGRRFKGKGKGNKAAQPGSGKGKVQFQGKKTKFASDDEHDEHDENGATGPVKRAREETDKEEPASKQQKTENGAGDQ
In words: ELISA, LogAUC grade.

The next experiment has as its target T9, Scl-70 (UniProt P11387 1-765).
T9 sequence: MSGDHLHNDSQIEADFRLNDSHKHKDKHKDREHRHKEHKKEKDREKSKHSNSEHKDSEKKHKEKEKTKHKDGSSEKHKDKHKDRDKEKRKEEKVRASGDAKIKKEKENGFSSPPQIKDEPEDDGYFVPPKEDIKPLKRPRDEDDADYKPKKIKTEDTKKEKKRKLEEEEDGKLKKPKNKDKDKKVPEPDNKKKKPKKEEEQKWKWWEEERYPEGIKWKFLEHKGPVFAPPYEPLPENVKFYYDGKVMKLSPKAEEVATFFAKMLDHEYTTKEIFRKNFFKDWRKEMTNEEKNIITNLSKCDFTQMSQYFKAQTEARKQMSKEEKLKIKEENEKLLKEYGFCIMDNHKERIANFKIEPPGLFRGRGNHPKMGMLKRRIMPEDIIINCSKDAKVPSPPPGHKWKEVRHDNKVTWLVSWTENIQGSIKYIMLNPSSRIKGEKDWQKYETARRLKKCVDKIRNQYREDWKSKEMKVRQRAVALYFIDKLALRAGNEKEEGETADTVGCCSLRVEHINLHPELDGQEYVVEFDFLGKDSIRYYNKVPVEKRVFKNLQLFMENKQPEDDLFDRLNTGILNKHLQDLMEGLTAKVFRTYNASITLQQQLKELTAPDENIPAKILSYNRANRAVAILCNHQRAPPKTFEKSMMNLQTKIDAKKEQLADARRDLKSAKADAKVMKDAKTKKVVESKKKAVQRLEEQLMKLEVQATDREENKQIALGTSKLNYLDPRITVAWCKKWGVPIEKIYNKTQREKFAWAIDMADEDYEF
In words: ELISA, LogAUC grade.

The target in experiment [3] is T7, Jo-1. In words: AtheNA, Ab 12.5 ug/ml.
The next experiment concerns the target T10, SSA.
T10 construct: also called SSA (Ro)
In words: AtheNA, Ab 12.5 ug/ml.

Another experiment has as its target T11, Sm (Smith antigen).
T11 construct: Protein complex
In words: AtheNA, Ab 12.5 ug/ml.

The target of the next experiment is T12, Histones.
T12 construct: Mixture of proteins
In words: AtheNA, Ab 12.5 ug/ml.

B1: CH557 (antibody, V domains shown)
VH: QVRLAQYGGGVKRLGATMTLSCVASGYTFNDYYIHWVRQAPGQGFELLGYIDPANGRPDYAGALRERLSFYRDKSMETLYMDLRSLRYDDTAMYYCVRNVGTAGSLLHYDHWGSGSPVIVSS
VL: EIVLTQSPATLSASPGERVTLTCRASRSVRNNVAWYQHKGGQSPRLLIYDASTRAAGVPARFSGSASGTEFTLAISNLESEDFTVYFCLQYNNWWTFGQGTRVDIK
notes: also called CH235.12; CH557_4A/293i
With B1, the LogAUC was found to be 8.21 with CH505.TF mutant gp120 M6; 7.63 in the experiment with CH505.M10D8gp120; 8.2 in the experiment with CH505.M5D8gp120293F; 4.61 with CH505.M19D8gp120; 0.38 with CH505.M9D8gp120/293F; 1.14 with CH505.TF mutant gp120 M8. Further, the LogAUC was 0.19 with CH505.M21D8gp120/293F; 0 in [1]; 7.71 in the experiment with CH505.M11D8gp120/293F; 0.69 in the experiment with CH505.M7D8gp120/293F; 2.37 with CH505.w30.12D8gp120; 8.59 with CH505w030.20D8gp120/293F. Further, the figures for the LogAUC with CH505w020.14D8gp120, in the experiment with CH0505_CON D7gp120/293i and in the experiment with CH505w136.B18D8gp120 were 8.33, 8.39 and 8.31, respectively. In addition, the binding result in the experiment with Jo-1 [2], with SSB and with Scl-70 was “no binding” each time.

B2: CH493 (antibody, V domains shown)
VH: QVRLLQYGGGVKRPGASMTISCVASGYNFNDYYIHWVRQAPGQGLELMGWIDPSGGRTDYAGAFGDRVSMYRDKSMNTLYMDLRSLRSGDTAMYYCVRNVGTAGSLLHYDHWGLGVMVTVSS
VL: EIVLTQSPATLSVSPGERVTLSCRASQSVRNNLAWYRQKRGQAPRLLIYGASTRATGIPARFSGSGSGTEFTLTISSMQSEDFAVYYCQQYNNWWTFGQGTKVEIK
notes: also called CH235.9; DH493
Turning to B2, the LogAUC came out at 8.11 in the experiment with CH505.TF mutant gp120 M6; 10.2 with CH505.M10D8gp120; 9.26 with CH505.M5D8gp120293F; 5.95 with CH505.M19D8gp120; 1.31 in the experiment with CH505.M9D8gp120/293F; 4.36 with CH505.TF mutant gp120 M8. Further, the LogAUC in the experiment with CH505.M21D8gp120/293F worked out at 1.13; in experiment [1], 1.04; in the experiment with CH505.M11D8gp120/293F it was 8.26; with CH505.M7D8gp120/293F it was 0.8; with CH505.w30.12D8gp120 it was 3.17; in the experiment with CH505w030.20D8gp120/293F, 8.09. Also, the LogAUC with CH505w020.14D8gp120 stood at 8.15; in the experiment with CH0505_CON D7gp120/293i, 8.67; with CH505w136.B18D8gp120, 5.76.

B3: CH235 (antibody, V domains shown)
VH: QVQLVQSGAEVKKPGASVTVSCQASGYTFTNYYVHWVRQAPGQGLQLMGWIDPSWGRTNYAQNFQGRITMTRDTSTSTVYMEMRSLRSEDTAVYYCARNVATEGSLLHYDYWGQGTLVTVSA
VL: EIVLTQSPATLSVSPGERATLSCRASQSVRSNLAWYQQRPGQAPRLLIYGTSTRATGVPARFSGRGSGTEFTLAISSMQSEDFAVYLCLQYNNWWTFGQGTKVEIK
notes: also called CH235_4A
As to B3, the LogAUC was 9.46 with CH505.TF mutant gp120 M6; 10.6 with CH505.M10D8gp120; 11.4 with CH505.M5D8gp120293F; 7.13 with CH505.M19D8gp120; 0 with CH505.M9D8gp120/293F; 0 in the experiment with CH505.TF mutant gp120 M8. Moreover, the LogAUC in the experiment with CH505.M21D8gp120/293F was determined as 0; in [1] it was 0; with CH505.M11D8gp120/293F, 7.59; in the experiment with CH505.M7D8gp120/293F it was 0; with CH505.w30.12D8gp120, 7.28; in the experiment with CH505w030.20D8gp120/293F it was 8.33. For the same molecule, the LogAUC came out at 9.91 with CH505w020.14D8gp120, 9.73 with CH0505_CON D7gp120/293i and 7.53 with CH505w136.B18D8gp120. In addition, the AtheNA signal is 3 relative luminescence units in the experiment with Jo-1 [3], 13 relative luminescence units with SSA, 8 relative luminescence units with Sm (Smith antigen) and 5 relative luminescence units with Histones. The binding result with Jo-1 [2], with SSB and in the experiment with Scl-70 was “no binding” each time.

B4: CH241 (antibody, V domains shown)
VH: QVQLVQSGAAVKKPGASVRVSCKASGYTFTSSHIHWVRQAPGQGPEWMGMIDPSVGRPTTAGKFQGRVTMTRDRYTSTAYMDLSSLRSEDTAVYYCARSVETTGSLLYFDYWGQGTLITVSS
VL: EIVLTQSPATLSVSPGERATLSCRASQSVRSNIAWYQQKPGQAPRLLIHGASTRATGIPGRFSGSGSGPEFTLAISSVQSEDFAVYYCQQYNDWWTFGQGTKVEIK
On to B4, for which the LogAUC in the experiment with CH505.TF mutant gp120 M6 was 13.2; with CH505.M10D8gp120, 14.4; with CH505.M5D8gp120293F, 14.5; with CH505.M19D8gp120, 10.4; with CH505.M9D8gp120/293F it was 0; with CH505.TF mutant gp120 M8, 2.18. For the same molecule, the LogAUC turned out to be 4.82 with CH505.M21D8gp120/293F; 2.15 in experiment [1]; 9.68 with CH505.M11D8gp120/293F; 0 with CH505.M7D8gp120/293F; 9.6 with CH505.w30.12D8gp120; 8.03 with CH505w030.20D8gp120/293F. Moreover, the LogAUC turned out to be 13.1 with CH505w020.14D8gp120, 13.3 with CH0505_CON D7gp120/293i and 0.89 with CH505w136.B18D8gp120. Besides, the AtheNA signal with Jo-1 [3] is 6 relative luminescence units; with SSA it was 14 relative luminescence units; in the experiment with Sm (Smith antigen), 7 relative luminescence units; with Histones, 13 relative luminescence units. Besides, the binding result with Jo-1 [2], with SSB and with Scl-70 was “no binding” throughout.
